Measured values taken from patent US10233249B2, “Antibodies and methods for treating estrogen receptor-associated diseases” (BEIJING SHENOGEN PHARMA GROUP LTD., priority 2013, dated 2019).

Key:
K562 cells = test: Internalization analysis by surface fluorescence quenching (FACS); assay type: cell-based, human; conditions: 37° C., peak by 24 hours
Description: The % internalization=(Qn-Qo)/(Nn-Qo); Qn=MFI (Mean Fluorescence Intensity) for a sample at a specific time point, after quench; Nn=MFI for a sample taken at a specific time point, no quench; Qo=MFI for sample incubated only on ice at 0 hour, after quench.
As the development of antibody drug conjugate relies on the carrier antibody to be internalized to deliver the chemotherapeutic agent into the tumor cells, the ability of SNGmB1 being internalized by K-562 cells was also assessed.
K562 cells were first cultured in normal IMDM medium for 24 hours. On the second day, the cells are collected by centrifugation and washed once with warm PBS, followed by resuspending into culture medium with IMDM without phenol red (Gibco) supplemented with 2.5% charcoal-stripped FBS (Gibo) without phenol red. After culturing for 48 hours, the cells were collected and centrifuged for 5 minutes at 1000 rpm. The cells were then incubated with AlexaFluro488-labelled anti-ER-α36 antibody SNGmB1 37° C. for different time (1, 2, 4, 6, 24 hours) to allow internalization to occur. The internalization was stopped by putting the cells on ice. Antibody internalization analysis of SNGmB1 by K562 cells was performed by surface fluorescence quenching and measured by MFI as detected by FACS. An anti-anti-AlexaFluro488 antibody was used to quench the AlexaFluro488-labeled SNGmB1 antibody bound on the K562 cell surface.

[1] = molecular target: T1, ER-α36 expressed on cell surfaces of MCF7 cells (Homo sapiens, UniProt P03372); test: FACS analysis of binding to cell surface ER-α36; conditions: mouse IgG2b isotype control
T1 construct: endogenous in cells; host or cells: K562, MCF7, SKBR3, MHCC97H
T1 sequence (P03372 1-310 isoform P03372-4): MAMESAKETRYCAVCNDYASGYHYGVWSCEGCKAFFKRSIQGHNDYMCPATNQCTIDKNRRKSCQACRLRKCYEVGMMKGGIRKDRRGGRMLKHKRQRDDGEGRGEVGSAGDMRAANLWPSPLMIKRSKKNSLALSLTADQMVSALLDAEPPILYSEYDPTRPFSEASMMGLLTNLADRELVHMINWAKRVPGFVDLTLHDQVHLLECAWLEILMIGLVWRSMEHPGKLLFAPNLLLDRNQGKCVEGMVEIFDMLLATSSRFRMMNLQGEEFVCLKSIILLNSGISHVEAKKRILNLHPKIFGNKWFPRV
Description: (§1) Also examined were the binding of SNGmB1 to a series of human cancer cell lines including K-562 cell, a cell line derived from chronic myeloid leukemia patient; MCF7: a breast cancer cell line expressing both ER-α66 and ER-α36; SKBR3 (ATCC): a breast cancer cell line expressing high levels of HER2; and MHCC97H (ATCC): a highly metastatic hepatocellular carcinoma cell line.
(§2) These cell lines (K562, MCF7, SKBR3, MHCC97H) were cultured in their respective medium to 90% confluence and then the cells were washed with PBS, followed by pretreatment with 0.5 mM EDTA (adherent cell lines) to facilitate removal from substrate. The cells are then collected and centrifuged at 2500 rpm for 5 minutes at 4° C. After counting the cell number, the cells were then resuspended in the block buffer (10% normal goat serum, Invitrogen) to a final concentration of 5-10×10^6 cells/ml, and 100 μl of cells (5×10^5) were transferred to a 1.5 ml EP tube for staining. All those tubes (cells in block buffer) were then laid in a revolver (Grant) for 30 minutes at 4° C. After that the cells were centrifuged at 2500 rpm for 5 minutes at 4° C., the supernatant was discarded, 100 μl of the primary antibody was then added to (1-30 μg/ml final concentration, SNGmB1 or mouse IgG2b isotope control) and incubated in a revolver at 4° C. for 1 hr. The cells were then collected by centrifugation at 2500 rpm for 5 minutes at 4° C. and washed 2 times with PBS solution. The goat anti mouse IgG (H+L) FITC secondary antibody (Invitrogen) were then added at a dilution range of 1:400-800 followed by incubation in a revolver at 4° C. for 1 hr and kept in dark. Following this incubation, free antibody was the removed by washing the cells twice with PBS and the cells were then fixed in 1% paraformaldehyde at room temperature for 10 min and before resuspending the cells in 200-400 μl PBS with 5 μl 7-AAD (BD Biosciences) added for final flow cytometric analysis.
(§3) In FIG. 5A, the “Geom. Mean” refers to Geometric mean fluorescence intensity. […] The cell line was incubated with the SNGmB1 antibody and the binding was tested, according to the similar procedure described above. Mouse IgG2b was used as isotype control.

[2] = molecular target: T2, ER-α36 expressed on cell surfaces of SKBR3 cells (Homo sapiens, UniProt P03372); test: FACS analysis of binding to cell surface ER-α36; conditions: mouse IgG2b isotype control
T2 construct: endogenous in cells; host or cells: K562, MCF7, SKBR3, MHCC97H
T2 sequence (P03372 1-310 isoform P03372-4): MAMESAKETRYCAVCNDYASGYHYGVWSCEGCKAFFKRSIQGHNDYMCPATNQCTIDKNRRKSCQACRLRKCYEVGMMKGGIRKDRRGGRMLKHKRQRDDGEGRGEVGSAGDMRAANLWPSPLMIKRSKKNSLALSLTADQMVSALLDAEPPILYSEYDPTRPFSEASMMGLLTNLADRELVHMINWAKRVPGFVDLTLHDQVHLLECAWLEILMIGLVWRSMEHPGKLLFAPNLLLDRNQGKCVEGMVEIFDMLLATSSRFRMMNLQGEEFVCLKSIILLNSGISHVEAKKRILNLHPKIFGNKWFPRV
Description: as §1, §2, §3

[3] = molecular target: T3, ER-α36 expressed on cell surfaces of MHCC97H cells (Homo sapiens, UniProt P03372); test: FACS analysis of binding to cell surface ER-α36; conditions: mouse IgG2b isotype control
T3 construct: endogenous in cells; host or cells: K562, MCF7, SKBR3, MHCC97H
T3 sequence (P03372 1-310 isoform P03372-4): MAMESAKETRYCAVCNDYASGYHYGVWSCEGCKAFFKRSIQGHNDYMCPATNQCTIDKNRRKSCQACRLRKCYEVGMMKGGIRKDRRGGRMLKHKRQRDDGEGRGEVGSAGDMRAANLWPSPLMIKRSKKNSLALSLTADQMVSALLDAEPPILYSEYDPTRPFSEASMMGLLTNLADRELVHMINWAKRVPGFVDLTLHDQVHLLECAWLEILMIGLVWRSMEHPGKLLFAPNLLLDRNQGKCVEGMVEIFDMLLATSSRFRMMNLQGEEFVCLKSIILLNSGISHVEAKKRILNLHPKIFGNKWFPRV
Description: as §1, §2, §3

[4] = molecular target: T4, ER-α36 expressed on cell surfaces of K562 cells (Homo sapiens, UniProt P03372); test: FACS analysis of binding to cell surface ER-α36; conditions: 100, 20, 4, 0.8, 0.16, 0.032 μg/ml; mouse IgG2b isotype control
T4 construct: endogenous in cells; host or cells: K562, MCF7, SKBR3, MHCC97H
T4 sequence (P03372 1-310 isoform P03372-4): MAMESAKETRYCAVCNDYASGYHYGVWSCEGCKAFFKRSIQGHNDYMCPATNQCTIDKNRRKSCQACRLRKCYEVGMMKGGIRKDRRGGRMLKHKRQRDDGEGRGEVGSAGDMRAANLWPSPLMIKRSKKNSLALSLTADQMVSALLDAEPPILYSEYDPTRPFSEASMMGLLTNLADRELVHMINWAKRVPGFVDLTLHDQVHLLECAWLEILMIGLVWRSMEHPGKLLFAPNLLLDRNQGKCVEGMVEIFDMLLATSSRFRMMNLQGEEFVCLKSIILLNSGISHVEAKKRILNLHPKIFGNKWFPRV
Description: as §1, §2, §3

[5] = molecular target: T5, stable 3T3 cell lines induced to express human ER-α36 protein (Homo sapiens, UniProt P03372, I452L); test: FACS analysis of binding to inducible 3T3 cell lines; conditions: mouse IgG2b isotype control
T5 construct: expressed in transfected cells
T5 sequence (P03372 1-310 isoform P03372-4 I279L): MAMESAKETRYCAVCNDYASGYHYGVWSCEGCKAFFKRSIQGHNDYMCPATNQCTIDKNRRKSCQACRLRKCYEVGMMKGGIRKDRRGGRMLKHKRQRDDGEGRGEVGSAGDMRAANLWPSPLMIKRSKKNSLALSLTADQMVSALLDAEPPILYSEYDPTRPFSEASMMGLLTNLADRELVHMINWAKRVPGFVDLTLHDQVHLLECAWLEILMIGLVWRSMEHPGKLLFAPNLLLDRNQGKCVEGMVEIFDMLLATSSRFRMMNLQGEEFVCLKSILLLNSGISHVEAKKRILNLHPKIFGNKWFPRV

B1: SNGmB1: mouse monoclonal anti-ER-α36 antibody (mIgG2b), light chain SEQ ID NO: 16, heavy chain SEQ ID NO: 18 (antibody, listed as Mus musculus)
heavy: QAYLQQSGAELVRPGASVKMSCKASGYTFTSHNMHWIKQTPRQGLEWIGAIHPVNGDTAYNQKFKGKATLTVDKSSSTAYLQLSSLTSEESAVYFCAREGYGSVDYWGQGTTLTVSSAKTTPPSVYPLAPGCGDTTGSSVTLGCLVKGYFPESVTVTWNSGSLSSSVHTFPALLQSGLYTMSSSVTVPSSTWPSQTVTCSVAHPASSTTVDKKLEPSGPISTINPCPPCKECHKCPAPNLEGGPSVFIFPPNIKDVLMISLTPKVTCVVVDVSEDDPDVQISWFVNNVEVHTAQTQTHREDYNSTIRVVSTLPIQHQDWMSGKEFKCKVNNKDLPSPIERTISKIKGLVRAPQVYILPPPAEQLSRKDVSLTCLVVGFNPGDISVEWTSNGHTEENYKDTAPVLDSDGSYFIYSKLNMKTSKWEKTDSFSCNVRHEGLKNYYLKKTISRSPGK
light: ETTVTQSPASLSMTIGEKVTIRCITSTDIDDDMNWYRKKPGQPPKLLISEGNTLRPGVPSRFSSSGYGTDFVFTIENMLSEDVADYYCLQSDNLPLTFGAGTKLELKRADAAPTVSIFPPSSEQLTSGGASVVCFLNNFYPKDINVKWKIDGSERQNGVLNSWTDQDSKDSTYSMSSTLTLTKDEYERHNSYTCEATHKTSTSPIVKSFNRNEC
With B1 the “percentage of internalized antibody (of the bound antibody)” value (K562 cells) was ~75%, the “binding to MCF7 cells (FACS)” value [1] was “specific binding” and the “binding to SKBR3 cells (FACS)” value [2] was “specific binding”. For the same molecule, the “binding to MHCC97H cells (FACS)” value [3] was “specific binding”, the “binding to K562 cells (FACS)” value [4] was “dose-dependent binding” and the “binding to 3T3 cell line induced to express human ER-α36 (FACS)” value [5] was “specifically bound”.
